Experimental data published in article doi:10.1101/2020.02.18.953711 (bioRxiv, 2020).

Molecular target: T1, CEPR2^KD-His (Arabidopsis thaliana, UniProt Q9C7T7 642-977)
T1 sequence (looked up): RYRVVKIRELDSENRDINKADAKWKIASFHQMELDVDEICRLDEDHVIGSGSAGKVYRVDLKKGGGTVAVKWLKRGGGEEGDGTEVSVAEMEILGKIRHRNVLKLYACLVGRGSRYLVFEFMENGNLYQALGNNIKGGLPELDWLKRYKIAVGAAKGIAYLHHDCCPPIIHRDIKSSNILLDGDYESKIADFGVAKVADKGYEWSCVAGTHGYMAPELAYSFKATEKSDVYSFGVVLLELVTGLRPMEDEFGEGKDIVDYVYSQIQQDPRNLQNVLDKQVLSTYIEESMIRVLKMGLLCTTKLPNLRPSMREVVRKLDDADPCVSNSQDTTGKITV
Assay: pull-down

- binding result: binds
B1: NRT1.2^loop-GST (domain or fragment, Arabidopsis thaliana, UniProt Q8H157 232-346, looked up)
chain: SGSRFYRNKIPCGSPLTTILKVLLAASVKCCSSGSSSNAVASMSVSPSNHCVSKGKKEVESQGELEKPRQEEALPPRAQLTNSLKVLNGAADEKPVHRLLECTVQQVEDVKIVLK
